Assay results taken from patent US20200223885A1.

Target: IgG1 (manufactured by Sigma-Aldrich)
Experiment: SPR (Biacore T100), Fc-binding protein amine-coupled to CM5, IgG1 as analyte

B1: Fc-binding protein FcR9_F (FcR9 with Val192Phe) (receptor)
chain: KIEEAMGMRTEDLPKAEVILEPQWNRVLEKDSVTLKCRGAYSPEDNSTQWFHNESLISSQASSYLIDAATVDDSGEYRCQTSLSTLSDPVQLEVHIGWLLLQAPRWEFKEGDPIHLRCHSWKNTALHKVTYLQNGKGRKYFHHNSDFYIPKATLKDSGSYSCRGLFGSKNVSSETVNITITQGGHHHHHH
B1 was tested, and the Kd was 3.28 µM, the koff was 0.301 s⁻¹ and the kon was 90200 M⁻¹ s⁻¹.
